From the Human Domainome abundance scans (Beltran et al. 2025)
± gives the uncertainty stated by the source.

B1: Transcription intermediary factor 1-beta, residues 620 to 671; numbered along this chain, Q13263 (parent)
chain: TLDDSATICRVCQKPGDLVMCNQCEFCFHLDCHLPALQDVPGEEWSCSLCHV
B2: Tudor domain-containing protein 3, residues 554 to 611; numbered along this chain, Q9H7E2 (parent)
chain: KMWKPGDECFALYWEDNKFYRAEVEALHSSGMTAVVKFIDYGNYEEVLLSNIKPIQTE

Variants of: B1
Assay: abundance fitness (aPCA) (normalised: wild type 0, dead -1); higher = more abundant; growth selection in yeast, the domain comes from the species named
Settings: Homo sapiens

Variant	abundance fitness
T1H	-0.593 ± 0.34
T1K	0.109 ± 0.24
T1A	0.314 ± 0.28
T1V	-0.043 ± 0.27
T1E	-0.11 ± 0.45
T1N	0.184 ± 0.36
T1R	-0.495 ± 0.23
T1S	-0.096 ± 0.17
T1D	0.178 ± 0.35
T1G	-0.602 ± 0.27
T1M	-0.363 ± 0.32
T1W	-0.8 ± 0.33
D3N	-0.112 ± 0.14
D3A	-0.723 ± 0.14
D3K	0.027 ± 0.2
D3V	-0.487 ± 0.1
D3L	-0.242 ± 0.11
D3T	-0.661 ± 0.15
D3I	-0.292 ± 0.2
D3E	0.13 ± 0.13
D3Q	-0.603 ± 0.18
D3M	-0.529 ± 0.16
D3G	-0.411 ± 0.099
D3W	-0.302 ± 0.12

Variant	abundance fitness
D3R	-0.294 ± 0.096
D3H	-0.205 ± 0.15
D3F	0.053 ± 0.12
D3C	-0.534 ± 0.17
D3S	-0.223 ± 0.11
L2Q	0.016 ± 0.14
L2F	-0.168 ± 0.15
L2R	-0.252 ± 0.12
L2W	-0.323 ± 0.13
L2H	-0.678 ± 0.4
L2D	-0.078 ± 0.17
L2P	0.179 ± 0.27
L2G	-0.604 ± 0.16
L2C	-0.198 ± 0.18
L2M	0.021 ± 0.17
L2E	0.021 ± 0.17
L2S	-0.004 ± 0.14
L2N	0.017 ± 0.25
L2Y	0.045 ± 0.17
L2I	-0.112 ± 0.19
L2V	-0.13 ± 0.1
L2K	-0.056 ± 0.33
T7E	0.004 ± 0.13
T7Y	0.007 ± 0.15

Variant	abundance fitness
T7K	-0.022 ± 0.13
T7V	-0.066 ± 0.088
T7W	-0.429 ± 0.15
T7G	-0.207 ± 0.08
T7C	-0.451 ± 0.16
T7F	-0.383 ± 0.12
T7L	-0.41 ± 0.12
T7I	-0.013 ± 0.13
T7A	-0.123 ± 0.098
T7H	-0.138 ± 0.14
T7D	0.024 ± 0.12
T7Q	-0.118 ± 0.27
T7R	0.077 ± 0.11
T7P	-0.204 ± 0.19
T7M	-0.143 ± 0.15
T7N	-0.176 ± 0.15
T7S	-0.079 ± 0.09
S5D	-0.267 ± 0.43
S5N	-0.444 ± 0.36
S5V	-0.381 ± 0.093
S5T	-0.193 ± 0.13
S5E	-0.314 ± 0.1
S5K	-0.03 ± 0.12
S5C	-0.157 ± 0.23

Variant	abundance fitness
S5Q	-0.215 ± 0.11
S5R	-0.064 ± 0.077
S5F	-0.227 ± 0.22
S5P	-0.18 ± 0.14
S5M	-0.267 ± 0.11
S5W	-0.307 ± 0.11
S5L	-0.596 ± 0.12
S5I	-0.04 ± 0.17
S5G	-0.308 ± 0.076
I8D	-0.51 ± 0.13
I8H	-0.123 ± 0.14
I8E	-0.065 ± 0.11
I8M	0.056 ± 0.11
I8G	-0.418 ± 0.078
I8N	-0.045 ± 0.17
I8A	-0.099 ± 0.095
I8K	-0.107 ± 0.14
I8C	0.083 ± 0.12
I8F	0.087 ± 0.22
I8L	0.03 ± 0.092
D4G	-0.219 ± 0.082
D4C	0.201 ± 0.1
D4L	0.135 ± 0.081
D4R	0.015 ± 0.072

Variant	abundance fitness
D4P	-0.155 ± 0.12
D4S	0.016 ± 0.086
D4A	-0.141 ± 0.1
D4Q	-0.294 ± 0.17
D4K	0.284 ± 0.16
D4F	-0.19 ± 0.15
D4M	0.083 ± 0.096
D4N	0.074 ± 0.11
D4V	0.148 ± 0.093
D4H	-0.035 ± 0.26
A6D	-0.274 ± 0.22
A6H	-0.303 ± 0.17
A6V	-0.35 ± 0.08
A6S	-0.223 ± 0.097
A6M	-0.069 ± 0.19
A6R	-0.275 ± 0.11
A6E	0.25 ± 0.12
A6C	-0.973 ± 0.21
A6W	-0.86 ± 0.17
A6Q	-0.261 ± 0.13
A6L	-0.202 ± 0.081
A6P	-0.234 ± 0.16

Variants of: B2
Assay: as above
Settings: Homo sapiens

Variant	abundance fitness
N17E	-0.021 ± 0.08
N17H	-0.29 ± 0.15
N17I	-0.742 ± 0.16
N17Q	-0.1 ± 0.092
E8F	-0.118 ± 0.12
E8W	-0.178 ± 0.077
E8H	0.007 ± 0.089
E8C	-0.066 ± 0.086
D16L	-0.588 ± 0.085
D16M	-0.754 ± 0.11
G42A	-0.305 ± 0.077
G42H	-0.395 ± 0.18
G42C	-0.315 ± 0.14
G42L	-0.492 ± 0.13
G42V	-0.926 ± 0.11
F19W	-0.008 ± 0.081
F19P	-0.81 ± 0.13
F19T	-0.747 ± 0.12
F19A	-0.831 ± 0.087
S50Y	-0.437 ± 0.097
S50T	0.059 ± 0.086
S50N	-0.217 ± 0.086
S50M	-0.255 ± 0.09
S50F	-0.605 ± 0.093
S50Q	-0.115 ± 0.11

Variant	abundance fitness
S50K	0.03 ± 0.08
S50R	-0.155 ± 0.056
V24I	-0.027 ± 0.13
V24M	-0.726 ± 0.1
V24C	-0.949 ± 0.13
V24P	-0.906 ± 0.11
V24N	-0.825 ± 0.15
I39G	-0.361 ± 0.058
I39W	-0.361 ± 0.082
I39M	-0.093 ± 0.078
S30I	-0.322 ± 0.12
S30W	-0.462 ± 0.097
S30L	-0.37 ± 0.073
S30E	-0.143 ± 0.081
S30T	-0.119 ± 0.071
S30P	-0.331 ± 0.094
S30K	-0.172 ± 0.094
V36L	-0.571 ± 0.067
V36A	-0.92 ± 0.097
V36C	-0.584 ± 0.13
V36D	-0.996 ± 0.15
V36T	-0.777 ± 0.12
K53L	-0.217 ± 0.07
K53W	-0.242 ± 0.12
